Experimental data published in patent publication US20210403538A1.

Columns and labels:
[1] = biological target: Jurkat-EBOV GPCL (Zaire ebolavirus (EBOV), Makona)
[2] = biological target: Jurkat-EBOV GP (Zaire ebolavirus (EBOV), Makona)

Sequence of rEBOV-520 LALA (antibody) (VH): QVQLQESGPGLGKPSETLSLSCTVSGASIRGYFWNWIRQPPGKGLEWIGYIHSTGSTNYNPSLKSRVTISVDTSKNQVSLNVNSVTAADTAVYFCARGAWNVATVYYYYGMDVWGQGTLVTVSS
Sequence of rEBOV-520 LALA (antibody) (VL): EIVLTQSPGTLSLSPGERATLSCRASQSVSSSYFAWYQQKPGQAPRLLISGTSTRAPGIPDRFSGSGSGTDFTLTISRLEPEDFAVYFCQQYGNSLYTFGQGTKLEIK

Row | Substance | fold decrease in binding [1] | fold increase in binding [2]
1 | MR72 (antibody) | 2.8 fold | –
2 | rEBOV-520 LALA (antibody) | – | < 4.6 fold
